Data as given in publication PMC3852957.

Assays:
rat serum albumin (rat) = rat serum albumin (rat) (UniProt P02770); assay: SPR; Biacore; 500 resonance units of albumin coupled to a CM5 chip; GAlbudAb flowed in HBS-P+ buffer at 39 nM to 5 μM; KD by the 1:1 interaction model in BiaEval software
[1] = target: cynomolgus monkey serum albumin (cynomolgus monkey) (UniProt A2V9Z4); assay: as above
[2] = target: human serum albumin (human) (UniProt P02768); assay: as above
[3] = target: human GLP-1 receptor (human) (UniProt P43220)
UniProt P43220, sequence (P43220 24-463): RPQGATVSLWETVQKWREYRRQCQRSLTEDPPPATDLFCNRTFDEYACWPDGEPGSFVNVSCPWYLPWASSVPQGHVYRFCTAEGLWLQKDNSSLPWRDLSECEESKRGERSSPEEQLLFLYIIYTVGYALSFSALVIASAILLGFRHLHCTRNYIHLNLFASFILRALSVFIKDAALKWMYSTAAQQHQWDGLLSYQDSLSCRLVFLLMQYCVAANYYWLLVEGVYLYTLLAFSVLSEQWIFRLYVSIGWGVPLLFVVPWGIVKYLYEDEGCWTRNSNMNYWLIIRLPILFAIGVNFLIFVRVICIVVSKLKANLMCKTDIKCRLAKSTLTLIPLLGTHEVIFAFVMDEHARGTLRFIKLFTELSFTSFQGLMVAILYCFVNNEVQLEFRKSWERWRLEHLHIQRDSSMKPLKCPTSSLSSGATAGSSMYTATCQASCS

UniProt P02770, sequence (P02770 25-608): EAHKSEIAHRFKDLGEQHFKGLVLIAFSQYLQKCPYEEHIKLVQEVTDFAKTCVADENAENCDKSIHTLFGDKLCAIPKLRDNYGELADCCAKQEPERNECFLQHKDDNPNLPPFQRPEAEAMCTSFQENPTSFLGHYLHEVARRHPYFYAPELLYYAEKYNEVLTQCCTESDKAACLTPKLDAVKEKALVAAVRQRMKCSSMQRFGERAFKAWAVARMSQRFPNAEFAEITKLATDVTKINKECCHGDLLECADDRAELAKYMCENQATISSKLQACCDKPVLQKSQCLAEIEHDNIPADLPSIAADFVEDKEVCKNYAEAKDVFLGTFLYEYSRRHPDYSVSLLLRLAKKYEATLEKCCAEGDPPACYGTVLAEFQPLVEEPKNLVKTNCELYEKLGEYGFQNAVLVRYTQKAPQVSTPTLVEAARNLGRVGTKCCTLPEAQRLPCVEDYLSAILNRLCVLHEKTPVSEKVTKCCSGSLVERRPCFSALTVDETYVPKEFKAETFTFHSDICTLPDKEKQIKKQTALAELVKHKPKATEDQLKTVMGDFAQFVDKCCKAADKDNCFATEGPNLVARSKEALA
UniProt P02768, sequence (P02768 25-609): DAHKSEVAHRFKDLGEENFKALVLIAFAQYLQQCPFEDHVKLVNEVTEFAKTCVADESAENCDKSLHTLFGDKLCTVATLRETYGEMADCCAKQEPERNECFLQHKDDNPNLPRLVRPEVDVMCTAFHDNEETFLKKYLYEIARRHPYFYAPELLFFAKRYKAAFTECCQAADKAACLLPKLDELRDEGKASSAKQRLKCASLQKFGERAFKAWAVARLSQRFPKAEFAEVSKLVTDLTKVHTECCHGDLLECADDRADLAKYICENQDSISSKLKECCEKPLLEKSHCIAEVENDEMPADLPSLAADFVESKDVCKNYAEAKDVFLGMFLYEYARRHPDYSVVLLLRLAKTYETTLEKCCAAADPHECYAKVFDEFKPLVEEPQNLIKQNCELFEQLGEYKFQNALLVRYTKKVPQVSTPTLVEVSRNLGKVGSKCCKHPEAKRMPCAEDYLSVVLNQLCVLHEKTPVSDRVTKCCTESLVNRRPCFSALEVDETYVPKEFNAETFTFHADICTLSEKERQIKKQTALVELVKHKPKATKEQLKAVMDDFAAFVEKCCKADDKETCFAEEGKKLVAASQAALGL
UniProt A2V9Z4, sequence (A2V9Z4 25-608): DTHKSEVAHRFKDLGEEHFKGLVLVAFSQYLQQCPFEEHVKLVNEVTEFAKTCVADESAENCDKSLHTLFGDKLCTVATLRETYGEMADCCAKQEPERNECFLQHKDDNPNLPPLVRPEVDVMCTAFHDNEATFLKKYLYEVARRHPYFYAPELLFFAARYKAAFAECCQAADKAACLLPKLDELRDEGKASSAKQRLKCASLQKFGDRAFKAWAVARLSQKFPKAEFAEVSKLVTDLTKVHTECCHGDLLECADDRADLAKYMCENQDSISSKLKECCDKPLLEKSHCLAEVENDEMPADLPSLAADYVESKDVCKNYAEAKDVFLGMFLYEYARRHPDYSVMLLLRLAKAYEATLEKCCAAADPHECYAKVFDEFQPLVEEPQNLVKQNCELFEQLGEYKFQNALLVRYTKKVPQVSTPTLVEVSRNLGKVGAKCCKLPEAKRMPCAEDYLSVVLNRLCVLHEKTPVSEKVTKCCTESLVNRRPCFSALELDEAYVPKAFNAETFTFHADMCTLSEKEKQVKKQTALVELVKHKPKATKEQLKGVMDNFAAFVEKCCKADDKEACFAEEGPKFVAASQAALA

Kd (rat serum albumin (rat))	Kd [1]	Kd [2]	cAMP-driven luciferase reporter gene expression in CHO cells stably transfected with human GLP-1 receptor (EC50) [3]	Substance
275 nM	395 nM	143 nM	0.1 nM	GAlbudAb, DPP-IV resistant GLP-1 (7–36, A8G) fused to the DOM7h-14 AlbudAb
			0.1 nM	GLP-1 (7–36) peptide
